The assay addresses FGF4-Fc (human) (UniProt P08620). Description: BLI; Octet RED K2; FGF4-Fc (25 µg/mL) on Protein-A sensors, galectins at 0.2 µM to 6 µM; heterogeneous ligand (2:1) model; steady-state analysis for galectin-1. In general terms: BLI is a label-free optical method that tracks binding on a fibre tip over time.

FGF4-Fc (human), sequence (P08620 31-206): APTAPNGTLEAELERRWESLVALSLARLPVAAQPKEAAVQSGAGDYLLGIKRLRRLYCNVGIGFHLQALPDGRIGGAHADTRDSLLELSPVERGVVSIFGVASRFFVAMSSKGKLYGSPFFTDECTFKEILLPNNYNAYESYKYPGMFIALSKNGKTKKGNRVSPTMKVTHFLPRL

With galectin-8 (natural protein), the KD1 is 724 nM, the KD2 is 140 nM, the KOff1 turned out to be 0.0755 s⁻¹ and the KOff2 is 0.000115 s⁻¹. Further, the Kon1 was found to be 104000 M⁻¹ s⁻¹ and the Kon2 was 823 M⁻¹ s⁻¹.

The values are drawn from article PMC10214663.
